Test results published in patent publication US20240287172A1, “PROTEIN BINDERS TO IRHOM2 EPITOPES” (SCIRHOM GMBH, priority 2019, published 2024).

Experiments:
hiR2-FL-K536A-T7 (human) = molecular target: T1, hiR2-FL-K536A-T7 (human) (UniProt Q6PJF5); assay: FACS on MEF-DKO cells expressing the variant, 3 µg/ml antibody
T1 sequence: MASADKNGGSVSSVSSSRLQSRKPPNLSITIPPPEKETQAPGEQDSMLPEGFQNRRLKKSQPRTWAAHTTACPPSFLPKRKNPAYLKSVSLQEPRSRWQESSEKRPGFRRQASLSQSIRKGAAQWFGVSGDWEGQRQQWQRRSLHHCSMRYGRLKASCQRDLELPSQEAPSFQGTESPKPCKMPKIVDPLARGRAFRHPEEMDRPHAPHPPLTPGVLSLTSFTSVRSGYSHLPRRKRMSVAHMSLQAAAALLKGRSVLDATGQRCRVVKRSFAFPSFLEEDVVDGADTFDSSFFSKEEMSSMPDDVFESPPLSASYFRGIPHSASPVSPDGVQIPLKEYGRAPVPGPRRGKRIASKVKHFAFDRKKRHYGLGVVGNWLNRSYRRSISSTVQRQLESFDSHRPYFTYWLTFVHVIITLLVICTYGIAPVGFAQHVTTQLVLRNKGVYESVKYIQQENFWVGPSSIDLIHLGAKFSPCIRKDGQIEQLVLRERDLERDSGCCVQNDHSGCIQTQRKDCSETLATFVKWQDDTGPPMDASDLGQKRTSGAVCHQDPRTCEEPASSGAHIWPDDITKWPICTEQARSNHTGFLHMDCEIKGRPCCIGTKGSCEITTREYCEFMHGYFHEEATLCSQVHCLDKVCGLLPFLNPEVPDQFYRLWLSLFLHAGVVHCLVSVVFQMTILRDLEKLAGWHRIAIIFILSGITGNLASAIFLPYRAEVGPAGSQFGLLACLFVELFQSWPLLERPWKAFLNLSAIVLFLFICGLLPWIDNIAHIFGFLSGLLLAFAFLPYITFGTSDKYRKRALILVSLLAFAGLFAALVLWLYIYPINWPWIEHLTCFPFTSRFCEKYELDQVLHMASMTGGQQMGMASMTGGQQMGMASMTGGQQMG

hiR2-FL-H505R-T7 (human) = molecular target: T2, hiR2-FL-H505R-T7 (human) (UniProt Q6PJF5); assay: FACS, MEF-DKO cells, 3 µg/ml
T2 sequence: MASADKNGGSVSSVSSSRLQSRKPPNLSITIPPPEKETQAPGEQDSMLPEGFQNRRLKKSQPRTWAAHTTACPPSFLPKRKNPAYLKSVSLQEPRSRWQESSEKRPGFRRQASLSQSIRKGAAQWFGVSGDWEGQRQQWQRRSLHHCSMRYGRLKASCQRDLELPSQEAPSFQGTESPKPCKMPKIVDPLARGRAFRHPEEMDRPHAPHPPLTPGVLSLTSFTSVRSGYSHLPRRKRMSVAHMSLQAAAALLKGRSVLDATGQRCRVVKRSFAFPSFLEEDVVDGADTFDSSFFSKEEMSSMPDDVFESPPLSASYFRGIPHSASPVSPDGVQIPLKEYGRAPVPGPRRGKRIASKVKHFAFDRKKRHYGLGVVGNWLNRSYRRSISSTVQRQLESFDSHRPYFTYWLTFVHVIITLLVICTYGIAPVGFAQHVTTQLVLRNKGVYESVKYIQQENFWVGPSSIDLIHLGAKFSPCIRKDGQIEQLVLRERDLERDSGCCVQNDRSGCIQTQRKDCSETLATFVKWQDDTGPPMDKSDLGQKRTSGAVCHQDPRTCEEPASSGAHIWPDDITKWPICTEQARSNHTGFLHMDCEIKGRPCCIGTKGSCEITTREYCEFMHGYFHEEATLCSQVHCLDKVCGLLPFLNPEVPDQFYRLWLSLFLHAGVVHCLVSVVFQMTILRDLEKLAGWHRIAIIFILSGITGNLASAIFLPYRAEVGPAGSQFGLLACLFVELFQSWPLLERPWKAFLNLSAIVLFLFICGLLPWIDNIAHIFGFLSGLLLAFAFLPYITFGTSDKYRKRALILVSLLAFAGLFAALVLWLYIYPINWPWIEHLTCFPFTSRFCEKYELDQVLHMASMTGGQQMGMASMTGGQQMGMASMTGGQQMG

B1: antibody 22 (antibody, V domains shown)
VH: QVTLKESGPGILQPSQTLSLTCSFSGFSLSTFGMGVGWIRQPSGKGLEWLAHIWWDDEKYYNSALKSRLTISKATSKNQVFLKIANVDTADTATYYCARISNYGSNYWYFNVWGTGTTVTVSS
VL: QVVLTQSPALMSASPGEKVTMTCSAGSSVSYMYWYQQKPGSSPRVLIYDTSNLASGVPARFTGSGSGTSYSLTISRMEAEDAATYYCQQWNSYPLTFGAGTKLELK
For B1, the loss of binding vs wild type (hiR2-FL-K536A-T7 (human)) was > 95%.

B2: antibody 44 (antibody, V domains shown)
VH: QVTLKESGPGILQPSQTLSLTCSFSGFSLSTFGMGVGWIRQPSEKGLEWLAHIWWDDDKYYNPALKSRLTISKDTSKNQIFLKITNVDTAETATYYCSRIGNYGSNYWYFDVWGTGTTVTVSS
VL: QIVLTQSPAVMSASPGEKVTMTCTASSSVYYMYWYQQTPGSSPRLLIYDTSNLASGVPVRFSGSGSGTSYSLTISRMEAEDAATYYCQQWNTYPLTFGAGTKLELK
For B2, the loss of binding vs wild type (hiR2-FL-K536A-T7 (human)) was > 95%.

B3: antibody 42 (antibody, V domains shown)
VH: QVTLKESGPGILQPSQTLSLTCSLSGFSLSTFGRGVGWIRQPSGKGLEWLAHIWWDDEKYYNPALKSRLTISKDTSKNQVFLRIANVDTADTATYYCARIQNYGSNYWYFDVWGTGTTVTVSS
VL: LIVLTQSPAIMSASPGEKVTMTCGATSRISYMFWYQQKPGSSPRVLIYDTSNLASGVPVRFSGSGSGTSYSLTISRVEAEDVATYYCQQWNSYPLTFGAGTKLELK
B3 was tested, and the loss of binding vs wild type (hiR2-FL-K536A-T7 (human)) was > 95%.

B4: antibody 48 (antibody, V domains shown)
VH: QVQLQQSGTELVRPGTSVKVSCKASGYAFTNYLIEWVKQRPGQGLEWIGVINPGSGFTKYNEKFKGKATLTADKSSSTVYMHLSSLTSEDSAVYFCARGLYRAMDYWGQGTSVTVSS
VL: DIQMTQSPASQSASLGESVTITCLASQTIATWLAWYQQKPGKSPQLLIYGATTLADGVPSRFSGGGSGTKFSFKISSLQAEDFVSYYCQQLYSTPYTFGGGTKLEIK
For B4, the loss of binding vs wild type (hiR2-FL-H505R-T7 (human)) was > 60%.

B5: antibody 34 (antibody, V domains shown)
VH: QVTLKESGPGILQPSQTLSLTCSFSGFSLSTFSLGVGWIRQSSGKGLEWLAHIWWDDEKYYNPALKSRLTISKDTSKNQVFLKIANVDAADTATYYCARAYYSKSYYALDYWGQGTSVTVSS
VL: DIQMTQSPSSLSASLGERVSLTCRASQEISGYLSWLQQKPDGTIKRLIYAASTLDSGVPKRFSGSRSGSDYSLAISSLESEDFADYYCLQYANFPFTFGSGTKLEIK
With B5 the loss of binding vs wild type (hiR2-FL-K536A-T7 (human)) was > 95%.
